Experimental data from patent publication US20060177831A1 (published 2006).

B1: Anti-c-MET Avimer monomer M13 (designed binder)
chain: CLADEFQCHSTKRCVPRHWLCDGVNDCEDGSDEKSCSQDPEFHKVSLQ
notes: Assayed protein also bears HA and 6His tags; also called C239
B2: Anti-c-MET Avimer monomer M20 (designed binder)
chain: CEADEFRCRSTGRCISVDWRCDGVSDCEDSSDEESCESTAPTSLQ
notes: Assayed protein also bears HA and 6His tags; also called C381
B3: c-MET extracellular domain (ECD)/Fc chimera (Fc fusion, not shown: a dimerising Fc or GST)
chain: ECKEALAKSEMNVNMKYQLPNFTAETPIQNVILHEHHIFLGATNYIYVLNEEDLQKVAEYKTGPVLEHPDCFPCQDCSSKANLSGGVWKDNINMALVVDTYYDDQLISCGSVNRGTCQRHVFPHNHTADIQSEVHCIFSPQIEEPSQCPDCVVSALGAKVLSSVKDRFINFFVGNTINSSYFPDHPLHSISVRRLKETKDGFMFLTDQSYIDVLPEFRDSYPIKYVHAFESNNFIYFLTVQRETLDAQTFHTRIIRFCSINSGLHSYMEMPLECILTEKRKKRSTKKEVFNILQAAYVSKPGAQLARQIGASLNDDILFGVFAQSKPDSAEPMDRSAMCAFPIKYVNDFFNKIVNKNNVRCLQHFYGPNHEHCFNRTLLRNSSGCEARRDEYRTEFTTALQRVDLFMGQFSEVLLTSISTFIKGDLTIANLGTSEGRFMQVVVSRSGPSTPHVNFLLDSHPVSPEVIVEHTLNQNGYTLVITGKKITKIPLNGLGCRHFQSCSQCLSAPPFVQCGWCHDKCVRSEECLSGTWTQQICLPAIYKVFPNSAPLEGGTRLTICGWDFGFRRNNKFDLKKTRVLLGNESCTLTLSESTMNTLKCTVGPAMNKHFNMSIIISNGHGTTQYSTFSYVDPVITSISPKYGPMAGGTLLTLTGNYLNSGNSRHISIGGKTCTLKSVSNSILECYTPAQTISTEFAVKLKIDLANRETSIFSYREDPIVYEIHPTKSFISGGSTITGVGKNLNSVSVPRMVINVHEAGRNFTVACQHRSNSEIICCTTPSLQQLNLQLPLKTKAFFMLDGILSKYFDLIYVHNPVFKPFEKPVMISMGNENVLEIKGNDIDPEAVKGEVLKVGNKSCENIHLHSEAVLCTVPNDLLKLNSELNIEWKQAISSTVLGKVIVQPDQNFT
B4: Anti-c-MET Avimer monomer M21 (designed binder)
chain: CVSNEFTCRSTKRCVPQEWVCDGVNDCEDGSDETGCPKHTSLQ
notes: Assayed protein also bears HA and 6His tags; also called C382
B5: Anti-c-MET Avimer monomer M38 (designed binder)
chain: B4 chain
notes: Assayed protein also bears HA and 6His tags; also called C399

What was measured:
[1] = biological target: B3; experiment: AlphaScreen competition with bn-HGF for c-MET ECD/Fc, NiNTA-pure
[2] = biological target: B3; experiment: binding ELISA on c-MET ECD/Fc, NiNTA-pure
[3] = biological target: B3; experiment: AlphaScreen competition with bn-HGF for c-MET ECD/Fc, Q-pure
recombinant human HGF = recombinant human HGF (human, UniProt P14210 32-728); experiment: cell-based or functional assay
recombinant human HGF, sequence (P14210 32-728 limits assumed): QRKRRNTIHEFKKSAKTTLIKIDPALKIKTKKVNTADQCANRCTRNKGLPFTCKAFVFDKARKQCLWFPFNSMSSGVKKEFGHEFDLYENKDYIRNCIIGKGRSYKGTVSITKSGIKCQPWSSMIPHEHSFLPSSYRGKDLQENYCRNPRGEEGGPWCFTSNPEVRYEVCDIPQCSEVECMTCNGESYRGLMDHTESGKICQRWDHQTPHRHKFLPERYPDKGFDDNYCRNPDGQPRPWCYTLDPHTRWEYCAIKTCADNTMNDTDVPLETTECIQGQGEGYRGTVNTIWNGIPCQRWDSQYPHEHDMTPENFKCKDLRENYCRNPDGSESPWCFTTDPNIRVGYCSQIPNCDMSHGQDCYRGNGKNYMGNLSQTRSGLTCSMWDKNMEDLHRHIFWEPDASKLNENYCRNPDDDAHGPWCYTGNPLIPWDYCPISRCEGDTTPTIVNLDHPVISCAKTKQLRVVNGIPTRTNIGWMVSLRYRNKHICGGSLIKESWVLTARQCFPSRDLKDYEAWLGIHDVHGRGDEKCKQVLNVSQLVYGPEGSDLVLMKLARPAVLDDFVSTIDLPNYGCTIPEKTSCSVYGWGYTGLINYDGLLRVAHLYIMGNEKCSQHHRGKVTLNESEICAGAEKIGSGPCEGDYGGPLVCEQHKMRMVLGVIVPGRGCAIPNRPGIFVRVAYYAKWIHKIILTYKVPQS

Binder	IC50 [1]	Kd [2]	IC50 [3]	IC50, inhibition of HGF-induced proliferation of serum-starved A549-SC cells (tritiated thymidine) (recombinant human HGF)
B1	247 nM	–	–	–
B2	22 nM	158 nM	186 nM	–
B3	–	–	–	1.73 nM
B4	83 nM	116 nM	–	–
B5	50 nM	95 nM	881 nM	–
